The text below walks through data of US20090111968A1 (DUQUESNE UNIVERSITY OF THE HOLY GHOST, published 2009).

Series [1] concerns the molecule itself. Kind of series: ESI-MS, declustering voltage 10 V. As to the method:
A Waters Micromass ZMD quadrupole mass spectrometer was used for all experiments. The mass spectrometer was calibrated with cesium iodide. The temperature at the ion spray interface was kept at 40° C. A voltage of 2.0 kV at the tip of the inlet capillary needle was used to generate the electrospray. The cone voltage was set at 20 V and the extractor voltage was set at 10 V, resulting in a declustering voltage (ΔCS) of 10 V. Samples of protein were prepared in 10 mM ammonium acetate, pH 8.0, at concentrations of approximately 250 μM and were delivered at a flow rate of 50 μL/min into the ion source.
A 6× histidine tagged version of GB1 alone (lacking the Ymbs38 extension) was subjected to ESI-MS under the same conditions. […] Charged ions due to monomeric GB1 are shown labeled with the bolded numbers. The molecular mass derived from the +6 and +7 charge states is 8258 Da. (Calculated molecular mass of GB1 with the 6× histidine tag=8387 Da.).

Series [2] deals with T1, untagged Zn(II)GB1-Ymbs38 (6x histidine tag removed by thrombin) (streptococcal; E. hirae, UniProt P06654 228-282; Q47839 108-145, Zn(II) bound by the four cysteines of the Cys-x-Cys-xxxx-Cys-x-Cys site).
T1 construct: also called untagged GB1-Ymbs38; untagged wild-type Zn(II)GB1-Ymbs38; not shown: vector residues left after thrombin cleavage at Leu-Val-Pro-Arg-Gly-Ser
The series is described as follows: HIS-Select nickel affinity resin binding assay, SDS-PAGE. The source says:
Sigma® HlS-Select™ Nickel Affinity resin was used to assess dimerization between histidine-tagged and untagged proteins. Tagged and untagged versions of CopY were isolated as described above. The untagged version of GB1-Ymbs38 was isolated from the purified tagged protein by treatment with the Sigma® THROMBIN CleanCleave™ Kit. A thrombin cleavage site between the histidine tag and the start of the GB1-Ymbs38 protein allowed for easy removal of the tag. Dimerization reactions of tagged and untagged protein were performed in 50 mM Tris, pH 7.8, 300 mM NaCl. Approximately equilmolar amounts of each protein were mixed and incubated at 37° C. for 45 minutes to promote subunit interchange. The protein mixture was applied to 100 μL of drained HIS-Select resin that had been equilibrated in 50 mM Tris, pH 7.8, 300 mM NaCl in a Centricep spin column (Princeton Separations, Inc.) at room temperature. After 1 minute of constant agitation, the resin-protein mixture was centrifuged at 500×g for 30 seconds and the flow through was collected in a clean microfuge tube. The resin then was washed twice with 350 μL of 50 mM Tris, pH 7.8, 300 mM NaCl, and once with 50 mM Tris, pH 7.8, 300 mM NaCl, 20 mM imidazole. Each wash step was followed by centrifugation at 500×g for 30 seconds to remove excess liquid. […] Eluants were analyzed on 15% Tris-tricine SDS-PAGE stained with Coomassie brilliant blue R-250.

Series [3] deals with the molecule itself. Kind of series: large zone size exclusion chromatography (Shodex KW 803), one trial dated 6/9/06; non-linear least squares fit of the fraction of monomer to a monomer-dimer model; cell H5 'Equilibrium constant'; sum of squares 0.025076973; no unit in the cell, loaded concentrations are in M and the text gives Ka in M^-1. As to the method: A 5 mL aliquot of Zn(II)CopY was loaded onto a Shodex KW 803 column (total column volume is 15 mL) equilibrated in 50 mM Tris, pH 7.8, 150 mM NaCl, 0.05% β-mercaptoethanol. […] The measure of the apparent molecular weight of the protein at each concentration was calculated by correlating the elution volume of the leading edge with elution volumes of known molecular weight standards.
The plot of the change in apparent molecular weight versus the concentration of protein loaded onto the chromatography column provided an understanding of the process that occurred during the large zone chromatography experiment. The acquired data could be further manipulated in order to calculate the equilibrium dissociation constant for the GB1-Ymbs38 dimer. […] The data points are the recorded experimental values of σw, at each loading concentration, and the solid line illustrates the best fit of the data to a monomer-dimer stoichiometric model. […] To verify that the data was fit to the appropriate stoichiometric model, a residual plot, which plots the difference between the observed fₘ and the calculated fₘ versus log [loaded protein], was prepared. […] The Kd value was calculated from the best fit of the data to a monomer-dimer stoichiometric model, represented on the plot as a solid line.

Series [4] concerns the molecule itself. Kind of series: large zone size exclusion chromatography, fit to monomer-dimer model, 4 °C. The method, then: The data points are the recorded experimental values of σw, at each loading concentration, and the solid line illustrates the best fit of the data to a monomer-dimer stoichiometric model. Non-linear least squares analysis was used to obtain the best fit according to the procedure. To verify that the data was fit to the appropriate stoichiometric model, a residual plot, which plots the difference between the observed fₘ and the calculated fₘ versus log [loaded protein], was prepared. The elution volume of each sample was converted to the weight average partition coefficient, which was plotted as a function of GB1-Ymbs38 concentration loaded onto the chromatography column. The Kd value was calculated from the best fit of the data to a monomer-dimer stoichiometric model, represented on the plot as a solid line. The plot shown corresponds to one of the three large zone chromatography trials performed on the apo-GB1-Ymbs38 protein variant.
The fitting of the data yielded the equilibrium association constants for each protein variant, which were subsequently converted to dissociation constants, Kd. Residual points were obtained by subtracting the fraction of monomer calculated by the best fit from the actual experimental value. Residuals were ploted against the log (loaded protein). […] Equilibrium association constants were used to calculate the Gibbs energy of assembly (ΔG°) through the equation: ΔG°=−RTlnKₐ₋Equilibrium association and dissociation constants, and the Gibbs free energy changes are shown in Table 6 for each GB1-Ymbs38 variant. A decrease in affinity between GB1-Ymbs38 monomers occurred upon mutation of the leucine and isoleucine residues or upon the removal of Zn(II), with the Zn(II) removal resulting in a larger decrease. The combination of Zn(II) removal and mutation of the aliphatic amino acids eliminated the ability of GB1-Ymbs38 monomer to self-associate.

Series [5] concerns the molecule itself. The series is described as follows: large zone size exclusion chromatography, one of three trials; best fit of the weight average partition coefficient against log [loaded protein] to a monomer-dimer model; self-association. The method, then:
The measure of the apparent molecular weight of the protein at each concentration was calculated by correlating the elution volume of the leading edge with elution volumes of known molecular weight standards.
The plot of the change in apparent molecular weight versus the concentration of protein loaded onto the chromatography column provided an understanding of the process that occurred during the large zone chromatography experiment. The acquired data could be further manipulated in order to calculate the equilibrium dissociation constant for the GB1-Ymbs38 dimer. The elution volume, Vₑ, was converted to the weight average partition coefficient, σw, which represented the fraction of solvent volume within the gel matrix that was accessible to the protein. […] The data points are the recorded experimental values of σw, at each loading concentration, and the solid line illustrates the best fit of the data to a monomer-dimer stoichiometric model. Non-linear least squares analysis was used to obtain the best fit according to the procedure. To verify that the data was fit to the appropriate stoichiometric model, a residual plot, which plots the difference between the observed fₘ and the calculated fₘ versus log [loaded protein], was prepared. […] The Kd value was calculated from the best fit of the data to a monomer-dimer stoichiometric model, represented on the plot as a solid line. […]

Where no end group is shown, it is not given here.

B1: 6x histidine tagged GB1 (lacking the Ymbs38 extension) (other, streptococcal, UniProt P06654 228-282, looked up)
chain: TYKLILNGKTLKGETTTEAVDAATAEKVFKQYANDNGVDGEWTYDDATKTFTVTE
modifications: also: 6x histidine tag, place not given here
notes: Calculated mass with tag 8387 Da (8.4 kDa); Control without the CopY part; also called 6xhis tagged GB1; not shown: 6x histidine tag
B1: the figures for the binding result in series [1] and in series [2] were “no binding (tested: approximately 250 µM)” and “no binding”, respectively.

B2: 6x histidine tagged Zn(II)GB1-Ymbs38 fusion protein (other, streptococcal;E. hirae, UniProt P06654 228-282, looked up)
chain: TYKLILNGKTLKGETTTEAVDAATAEKVFKQYANDNGVDGEWTYDDATKTFTVTEATLTQEDIQQIMKQLNKKEPVETIECNCIPGQCECKKQ
modifications: Zn(II) bound by the four cysteines of the Cys-x-Cys-xxxx-Cys-x-Cys site
notes: Calculated monomer mass 12.8 kDa (tagged); also called 6hGB1-Ymbs38; native Zn(II)GB1-Ymbs38; not shown: N-terminal 6xHis tag and thrombin site (Leu-Val-Pro-Arg-Gly-Ser) from the pET-14b vector
With B2, the Ka in series [3] came out at 40200 M⁻¹. In series [4], the Ka is 37000 M⁻¹ and the Kd was found to be 28 µM.

B3: 6x histidine tagged apo (cysteine modified) GB1-Ymbs38 (other, streptococcal;E. hirae, UniProt P06654 228-282, looked up)
chain: B2 chain
modifications: Zn(II) removed (EDTA or acidification); the four cysteines of the metal binding motif carboxyamidomethylated with iodoacetamide
notes: Calculated mass of the carboxyamidomethylated protein 12,992 Da; also called apo-GB1-Ymbs38; Apo-GB1-Ymbs38; not shown: N-terminal 6xHis tag and thrombin site (Leu-Val-Pro-Arg-Gly-Ser) from the pET-14b vector
As to B3, the Kd in series [5] was found to be 54 µM. In series [4], the Ka was 10000 M⁻¹ and the dissociation constant Kd worked out at 51 µM.
